Source: the supplement of paper PMC6379048

Experiments:
Assay in all cases: Kd (EC50 corrected by depletion factor)
RPL7 = RPL7 (UniProt P18124)
Method in brief: (§1)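 Free RNA oligos (0 nM to 30 μM) were pre-incubated with HEK293-FT lysate (2.5 mg protein/well) for 1 h at 4°C, followed by 30 min at 4°C with the same 5′-amino-C6 oligos coupled to NHS-Sepharose beads. Bound proteins were quantified by label-free LC-MS/MS and normalised to the control. EC50 was derived from a four-parameter log-logistic fit, and Kd was obtained by multiplying EC50 by a protein-dependent depletion factor.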

IFIT5 = target: T1, IFIT5 (UniProt Q13325)
T1 sequence: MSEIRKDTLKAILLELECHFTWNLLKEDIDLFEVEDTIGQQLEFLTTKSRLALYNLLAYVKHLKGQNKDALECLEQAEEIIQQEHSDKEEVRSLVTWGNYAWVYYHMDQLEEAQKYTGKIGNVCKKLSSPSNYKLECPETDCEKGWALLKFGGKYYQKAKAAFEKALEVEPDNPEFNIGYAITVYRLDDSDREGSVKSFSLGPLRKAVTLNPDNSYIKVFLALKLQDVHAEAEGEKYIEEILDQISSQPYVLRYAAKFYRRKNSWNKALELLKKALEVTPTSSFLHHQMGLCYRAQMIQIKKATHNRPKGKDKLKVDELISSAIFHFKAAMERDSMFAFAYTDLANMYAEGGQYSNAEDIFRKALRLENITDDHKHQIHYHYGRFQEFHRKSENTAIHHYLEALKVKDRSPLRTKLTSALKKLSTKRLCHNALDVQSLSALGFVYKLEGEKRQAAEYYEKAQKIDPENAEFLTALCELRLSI
Method in brief: as §1

HNRNPK = HNRNPK (UniProt P61978)
Method in brief: as §1

RPS3 = RPS3 (UniProt P23396)
Method in brief: as §1

MRPS34 = MRPS34 (UniProt P82930)
Method in brief: as §1

CSTF1 = target: T2, CSTF1 (UniProt Q05048)
T2 sequence: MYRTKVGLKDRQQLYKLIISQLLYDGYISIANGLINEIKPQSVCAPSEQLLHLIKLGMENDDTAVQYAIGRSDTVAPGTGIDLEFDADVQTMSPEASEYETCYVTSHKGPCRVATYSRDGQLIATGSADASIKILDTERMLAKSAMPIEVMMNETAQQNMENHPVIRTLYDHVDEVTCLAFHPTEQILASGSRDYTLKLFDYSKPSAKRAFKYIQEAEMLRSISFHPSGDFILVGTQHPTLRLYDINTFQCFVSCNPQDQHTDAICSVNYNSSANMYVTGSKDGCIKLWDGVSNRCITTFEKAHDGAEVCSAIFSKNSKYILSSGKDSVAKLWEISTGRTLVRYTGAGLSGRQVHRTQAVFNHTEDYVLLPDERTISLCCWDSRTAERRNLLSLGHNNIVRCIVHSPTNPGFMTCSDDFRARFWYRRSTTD
Method in brief: as §1

TTC37 = TTC37 (UniProt Q6PGP7)
Sequence of TTC37 (Q6PGP7 whole entry): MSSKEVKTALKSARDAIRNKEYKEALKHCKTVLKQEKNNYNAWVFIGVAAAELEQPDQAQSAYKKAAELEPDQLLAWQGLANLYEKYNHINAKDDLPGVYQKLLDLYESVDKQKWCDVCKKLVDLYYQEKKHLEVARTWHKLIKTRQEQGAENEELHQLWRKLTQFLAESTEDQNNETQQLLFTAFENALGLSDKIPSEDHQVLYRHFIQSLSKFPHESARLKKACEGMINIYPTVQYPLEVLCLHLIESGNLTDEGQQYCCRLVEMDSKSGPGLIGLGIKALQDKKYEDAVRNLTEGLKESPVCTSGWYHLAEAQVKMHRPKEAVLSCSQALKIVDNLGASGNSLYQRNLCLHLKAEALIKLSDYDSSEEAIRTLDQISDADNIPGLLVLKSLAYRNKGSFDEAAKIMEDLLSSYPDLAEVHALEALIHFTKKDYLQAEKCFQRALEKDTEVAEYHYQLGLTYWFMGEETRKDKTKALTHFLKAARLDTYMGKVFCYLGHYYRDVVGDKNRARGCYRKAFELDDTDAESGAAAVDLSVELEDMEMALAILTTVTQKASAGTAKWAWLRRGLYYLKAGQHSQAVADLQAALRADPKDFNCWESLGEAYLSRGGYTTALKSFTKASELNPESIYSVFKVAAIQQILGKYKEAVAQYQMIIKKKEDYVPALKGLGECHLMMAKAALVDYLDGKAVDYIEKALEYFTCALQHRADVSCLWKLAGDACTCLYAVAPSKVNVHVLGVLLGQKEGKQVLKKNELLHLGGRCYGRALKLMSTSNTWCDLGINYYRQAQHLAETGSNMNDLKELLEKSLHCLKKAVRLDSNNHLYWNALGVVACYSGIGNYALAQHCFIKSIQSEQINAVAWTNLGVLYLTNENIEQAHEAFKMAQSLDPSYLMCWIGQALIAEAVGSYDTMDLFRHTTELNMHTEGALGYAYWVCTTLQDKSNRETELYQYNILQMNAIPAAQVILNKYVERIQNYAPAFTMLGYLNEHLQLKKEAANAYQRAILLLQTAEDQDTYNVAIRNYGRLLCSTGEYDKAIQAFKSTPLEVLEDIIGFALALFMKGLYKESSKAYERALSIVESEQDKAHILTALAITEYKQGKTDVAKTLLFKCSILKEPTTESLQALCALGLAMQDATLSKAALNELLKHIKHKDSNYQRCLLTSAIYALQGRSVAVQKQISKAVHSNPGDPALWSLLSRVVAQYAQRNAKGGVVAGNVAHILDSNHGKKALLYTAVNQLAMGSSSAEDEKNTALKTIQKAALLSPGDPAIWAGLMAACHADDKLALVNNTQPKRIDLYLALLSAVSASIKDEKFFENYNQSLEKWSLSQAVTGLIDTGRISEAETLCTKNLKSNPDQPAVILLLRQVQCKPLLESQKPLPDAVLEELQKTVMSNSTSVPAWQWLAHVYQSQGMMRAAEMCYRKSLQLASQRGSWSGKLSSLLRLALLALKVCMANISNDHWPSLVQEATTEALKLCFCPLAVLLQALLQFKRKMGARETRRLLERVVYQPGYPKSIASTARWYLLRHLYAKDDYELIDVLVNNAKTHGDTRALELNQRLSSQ
Method in brief: as §1

LSM8 = target: T3, LSM8 (UniProt O95777)
T3 sequence: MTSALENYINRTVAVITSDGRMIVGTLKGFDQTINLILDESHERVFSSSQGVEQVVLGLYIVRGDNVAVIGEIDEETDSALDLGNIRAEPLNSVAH
Method in brief: as §1

MRPS31 = MRPS31 (UniProt Q92665)
Method in brief: as §1

DHX37 = target: T4, DHX37 (UniProt Q8IY37)
T4 sequence: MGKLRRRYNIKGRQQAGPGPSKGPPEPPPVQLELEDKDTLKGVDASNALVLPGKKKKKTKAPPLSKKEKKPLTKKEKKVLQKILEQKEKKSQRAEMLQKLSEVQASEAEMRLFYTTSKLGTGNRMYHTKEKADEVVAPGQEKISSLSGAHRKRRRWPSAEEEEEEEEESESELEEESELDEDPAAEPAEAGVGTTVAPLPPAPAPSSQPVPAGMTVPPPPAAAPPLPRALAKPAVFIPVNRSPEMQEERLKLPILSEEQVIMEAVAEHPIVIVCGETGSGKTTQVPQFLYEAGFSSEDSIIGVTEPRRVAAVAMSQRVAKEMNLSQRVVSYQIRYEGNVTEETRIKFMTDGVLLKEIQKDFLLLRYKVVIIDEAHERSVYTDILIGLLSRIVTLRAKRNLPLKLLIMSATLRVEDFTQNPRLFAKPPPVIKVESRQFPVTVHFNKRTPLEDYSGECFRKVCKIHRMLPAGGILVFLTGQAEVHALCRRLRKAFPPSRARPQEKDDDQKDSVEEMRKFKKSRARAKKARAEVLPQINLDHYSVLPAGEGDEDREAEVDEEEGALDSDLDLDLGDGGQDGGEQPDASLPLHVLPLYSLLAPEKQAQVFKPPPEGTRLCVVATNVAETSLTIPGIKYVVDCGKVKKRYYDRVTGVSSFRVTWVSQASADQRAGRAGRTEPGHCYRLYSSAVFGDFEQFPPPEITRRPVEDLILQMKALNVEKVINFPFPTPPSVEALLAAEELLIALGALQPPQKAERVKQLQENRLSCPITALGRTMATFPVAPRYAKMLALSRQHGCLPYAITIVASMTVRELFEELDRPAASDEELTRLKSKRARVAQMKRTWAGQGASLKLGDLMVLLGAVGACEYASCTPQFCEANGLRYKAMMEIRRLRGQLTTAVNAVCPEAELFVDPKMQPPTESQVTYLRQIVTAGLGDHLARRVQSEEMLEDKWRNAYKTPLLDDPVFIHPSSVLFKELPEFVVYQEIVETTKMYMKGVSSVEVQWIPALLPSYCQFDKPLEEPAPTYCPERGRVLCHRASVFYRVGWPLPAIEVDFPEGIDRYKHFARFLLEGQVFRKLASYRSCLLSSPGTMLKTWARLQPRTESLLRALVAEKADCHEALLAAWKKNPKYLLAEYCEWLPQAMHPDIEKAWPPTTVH
Method in brief: as §1

AAUAAA
Kd (RPL7): 3.96 µM
Kd (IFIT5): 363 nM

CUGUCCU
Kd (HNRNPK): 1630 nM
Kd (RPS3): 109 nM

UAUUUAU
Kd (MRPS34): 46.2 nM
Kd (CSTF1): 322 nM
Kd (TTC37): 577 nM
Kd (LSM8): 2230 nM
Kd (MRPS31): 52.4 nM
Kd (DHX37): 3.37 µM
